Assay [1] addresses recombinant human Factor D (human) (UniProt P00746). In words: cell-based or functional assay.
Assay [2] deals with Factor D in C1q-depleted human serum (human) (UniProt P00746). In words: cell-based or functional assay.

As to “Lampalizumab subjected to thermal stress (Fab)”, the TR-FRET Activity (Thermal Stress) in assay [1] was determined as 86%. For the same substance, the Hemolytic Mean (rabbit erythrocyte lysis assay; Thermal Stress) in assay [2] was determined as 102.

With Lampalizumab (Fab), in assay [1], the TR-FRET Activity (Thermal control) was determined as 103% and the TR-FRET Activity (Unstressed control) turned out to be 93%. For the same substance, in assay [2], the Hemolytic Mean (rabbit erythrocyte lysis assay; Thermal control) was determined as 96 and the Hemolytic Mean (rabbit erythrocyte lysis assay; Unstressed control) worked out at 81.

As for “Lampalizumab subjected to oxidation conditions (30 mM AAPH) (Fab)”, the TR-FRET Activity (Oxidized, 30 mM AAPH) in assay [1] stood at 63%. The substance further showed a Hemolytic Mean (rabbit erythrocyte lysis assay; Oxidized, 30 mM AAPH) in assay [2] of 82.

The values are drawn from US20170122944A1.
